Results published in patent publication US20040052794.

Assays:
[1] = target: RB18A D9 product (aa 436-1566) (Homo sapiens) (UniProt Q15648); test: pulldown; conditions: 100 mM NaCl
luciferase = test: pulldown; conditions: 100 mM NaCl; negative control
[2] = target: p53 wild-type (Homo sapiens) (UniProt P04637); test: pulldown; conditions: 100 mM NaCl; positive control
[3] = test system: p53 wild-type His-tag (Homo sapiens); conditions: strand annealing initial rate, 20 nM protein, 37 C
[4] = target: GST-RB18A-N2 (Homo sapiens) (UniProt Q15648); conditions: strand annealing initial rate, 20 nM protein, 37 C
GST-RB18A-N2 (Homo sapiens), sequence (Q15648 1249-1581): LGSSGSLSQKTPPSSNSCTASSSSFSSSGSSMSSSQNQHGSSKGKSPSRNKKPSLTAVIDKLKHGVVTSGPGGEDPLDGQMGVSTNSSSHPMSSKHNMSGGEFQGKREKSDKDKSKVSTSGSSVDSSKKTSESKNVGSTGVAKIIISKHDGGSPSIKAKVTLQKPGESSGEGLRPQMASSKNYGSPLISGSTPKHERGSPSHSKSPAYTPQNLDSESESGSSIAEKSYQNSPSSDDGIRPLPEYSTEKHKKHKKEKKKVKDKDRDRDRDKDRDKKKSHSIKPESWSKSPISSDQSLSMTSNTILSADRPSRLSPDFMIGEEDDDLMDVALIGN

p53 wild-type (Homo sapiens), sequence (P04637 whole entry): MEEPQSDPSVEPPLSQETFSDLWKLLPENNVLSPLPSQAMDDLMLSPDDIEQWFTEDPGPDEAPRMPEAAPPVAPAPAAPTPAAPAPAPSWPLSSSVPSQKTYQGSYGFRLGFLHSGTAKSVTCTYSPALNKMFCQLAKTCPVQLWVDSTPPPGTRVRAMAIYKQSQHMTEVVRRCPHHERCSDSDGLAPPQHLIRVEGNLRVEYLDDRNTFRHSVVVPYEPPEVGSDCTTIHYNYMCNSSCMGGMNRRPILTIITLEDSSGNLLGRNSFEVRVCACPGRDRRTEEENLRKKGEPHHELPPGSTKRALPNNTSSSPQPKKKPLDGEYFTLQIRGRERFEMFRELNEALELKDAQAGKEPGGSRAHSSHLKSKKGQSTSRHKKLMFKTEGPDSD
RB18A D9 product (aa 436-1566) (Homo sapiens), sequence (Q15648 other isoform, or with tags, fused parts or gaps): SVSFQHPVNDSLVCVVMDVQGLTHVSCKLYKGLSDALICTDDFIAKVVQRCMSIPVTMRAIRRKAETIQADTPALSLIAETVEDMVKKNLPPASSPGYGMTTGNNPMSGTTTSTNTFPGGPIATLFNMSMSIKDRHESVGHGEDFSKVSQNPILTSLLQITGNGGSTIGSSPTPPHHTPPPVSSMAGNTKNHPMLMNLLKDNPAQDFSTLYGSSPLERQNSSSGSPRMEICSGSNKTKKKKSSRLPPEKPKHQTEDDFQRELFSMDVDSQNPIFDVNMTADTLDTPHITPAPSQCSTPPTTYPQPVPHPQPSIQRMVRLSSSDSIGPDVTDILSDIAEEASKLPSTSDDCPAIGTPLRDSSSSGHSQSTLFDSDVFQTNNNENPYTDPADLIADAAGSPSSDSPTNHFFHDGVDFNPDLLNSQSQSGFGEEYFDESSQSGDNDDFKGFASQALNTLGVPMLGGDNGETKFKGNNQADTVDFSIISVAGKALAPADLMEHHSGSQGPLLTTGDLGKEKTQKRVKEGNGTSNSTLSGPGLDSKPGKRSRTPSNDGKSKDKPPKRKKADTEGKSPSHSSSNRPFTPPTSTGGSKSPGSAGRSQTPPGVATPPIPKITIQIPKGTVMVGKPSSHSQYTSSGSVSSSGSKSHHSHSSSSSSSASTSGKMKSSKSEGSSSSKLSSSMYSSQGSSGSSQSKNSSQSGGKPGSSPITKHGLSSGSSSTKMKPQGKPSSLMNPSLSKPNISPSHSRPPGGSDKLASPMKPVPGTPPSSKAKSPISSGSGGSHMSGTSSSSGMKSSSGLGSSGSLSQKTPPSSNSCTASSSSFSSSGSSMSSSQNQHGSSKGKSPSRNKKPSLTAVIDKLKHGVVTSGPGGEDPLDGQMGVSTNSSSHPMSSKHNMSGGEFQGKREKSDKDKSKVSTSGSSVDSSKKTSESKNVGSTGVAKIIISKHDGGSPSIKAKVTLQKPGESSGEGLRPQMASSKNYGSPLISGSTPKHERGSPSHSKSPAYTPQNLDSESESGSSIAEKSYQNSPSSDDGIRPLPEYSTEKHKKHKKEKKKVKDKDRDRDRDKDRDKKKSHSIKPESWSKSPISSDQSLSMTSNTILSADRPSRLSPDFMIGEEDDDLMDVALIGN

Q: How did the binding (% of input retained) [1] turn out when double-stranded DNA-cellulose was run?
A: 20

Q: And the binding (% of input retained) (luciferase)?
A: < 0.1

Q: And the binding (% of input retained) [2]?
A: 20

Q: Which activity [3] does the source give for “phiX174 HaeIII 194 bp fragment, heat denatured” here?
A: 5.9 %/min

Q: What about the activity [4] of the same substance?
A: 14 %/min
